B1: BLC: novel CXC chemokine; baculovirus-expressed mouse BLC (SEQ ID NO:2), mature protein starting at isoleucine 22 (protein)
chain: MRLSTATLLLLLASCLSPGHGILEAHYTNLKCRCSGVISTVVGLNIIDRIQVTPPGNGCPKTEVVIWTKMKKVICVNPRAKWLQRLLRHVQSKSLSSTPQAPVSKRRAA

Tests used:
[1] = system: B cells; assay: Transwell chemotaxis of spleen B cells; type: cell-based, mouse
Description: (§1) FIGS. 1(a)-(g). Chemotactic activity of BLC on leukocyte subtypes. Results are expressed as the percentage of input cells of each subtype migrating to the lower chamber of a Transwell filter. FIG. 1a show migration of B cells; FIG. 1b, CD4+T cells; FIG. 1c, CD8+T cells; FIG. 1d; granulocytes; and FIG. 1e, monocytes/macrophages to BLC. Positive controls are SDF1a (FIGS. 1a, b, c, e) and IL8 (FIG. 1d). […] BLC was added to the upper or lower chamber of the apparatus as indicated. […] Data points with error bars represent the mean 1 s.d. for triplicates; individual data points are shown for duplicates. Each experiment was performed a minimum of two times.
(§2) To test this possibility, chemotaxis assays were performed with lymphocytes from mouse spleen and baculovirus-expressed BLC estimated to bc greater than 95% pure by silver staining. […] An alternative possibility is that high potency is not rcquired for a chemokine that is expressed constitutively within lymphoid tissues.
(§3) Chemotaxis. Lymphocytes and macrophages were obtained from spleens of C57BL/6 mice. For macrophage chemotaxis, B cells were depleted by passage over a MACS column (Milteny Biotec, Auburn, Calif.) after incubation with biotinylated anti-B220 antibodies and streptavidin-coated magnetic beads. Granulocytes were obtained from mouse bone marrow suspensions. Mouse BLR1 transfected Jurkat cells were obtained by transfection with pREP4 containing the mouse BLR1 coding region (16), isolated by RT-PCR from mouse spleen RNA, and an amino terminal prolactin leader sequence and FLAG epitope (23). Positive clones were identified using the anti-FLAG antibody M1 (Kodak). Chemotaxis assays were performed as previously described (15) and subsets of migrating cells were identified by flow cytometry using antibodies specific for B220, CD4, CD8 (Pharmingen, San Diego, Calif.) and Mac-1 (Caltag, South San Francisco, Calif.). Granulocytes were identified by their characteristic large side scatter profile. In some experiments, cells were preincubated with 100 ng/ml pertussis toxin (List Biol. Labs, Campbell, Calif.) for 2 hrs at 37° C. IL-8 (R&D Systems, Minneapolis, Minn.) and synthetic human SDF1 a (N33A) synthesized by native chemical ligation (Gryphon Sciences, South San Francisco) were used as positive controls. SDF1a (N33A) has identical activity to native human and mouse SDF1a (24, 25).

[2] = system: CD4 and CD8 T cells; assay: Transwell chemotaxis of spleen CD4 and CD8 T cells; type: cell-based; details: mouse spleen lymphocytes, FIG. 1b, c
Description: as §1, §2
(§4) Chemotaxis. Lymphocytes and macrophages were obtained from spleens of C57BL/6 mice. For macrophage chemotaxis, B cells were depleted by passage over a MACS column (Milteny Biotec, Auburn, Calif.) after incubation with biotinylated anti-B220 antibodies and streptavidin-coated magnetic beads. Granulocytes were obtained from mouse bone marrow suspensions. […]

[3] = system: spleen monocytes/macrophages; assay: Transwell chemotaxis of spleen monocytes/macrophages; type: cell-based, mouse; details: FIG. 1e
Description: as §1, §2, §4

[4] = system: granulocytes; assay: Transwell chemotaxis of bone marrow granulocytes; type: cell-based, mouse; details: FIG. 1d
Description: as §1, §2, §4

[5] = system: mouse BLR1; assay: Calcium flux in HEK 293 cells stably transfected with mouse BLR1; type: cell-based; details: HEK 293 cells stably transfected with mouse BLR1, FIG. 2a, b
Text: (§5) FIG. 2(a)-(f). BLR1-mediated calcium mobilization and chemotaxis in response to BLC. HEK 293 cells, stably transfected with the indicated chemokine receptors (FIGS. 2a-d), were loaded with the calcium probe Indo-1 and assayed by spectrofluorimetry for changes in intracellular calcium in response to BLC. FIG. 2a, Calcium flux as a function of BLC concentration (nM). FIG. 2b, Specificity of the response of BLR1 to BLC. FIG. 2c, Lack of response to BLC in CCR1-transfected cells. FIG. 2d, Lack of response to BLC in CXCR2-transfected cells. FIG. 2e, Percentage of maximal calcium flux as a function of BLC concentration in BLR1-transfected 300-19 cells. FIG. 2f, Chemotactic response of BLR1-transfected Jurkat cells to BLC. Results of chemotaxis are expressed as in FIG. 1.
(§6) We therefore tested whether BLC could signal through BLR1. […] Using BLR1 transfected 300-19 pre-B cells a more complete dose response curve was obtained showing that the response to BLC is saturable (FIG. 2e). […] We next tested the ability of BLC to stimulate chemotaxis through BLR1.
(§7) Calcium fluorimetry on transfected 293 and 300-19 cells. Native mouse BLR1 was subcloned into pBK-CMV (Stratagene) and used to transfect HEK 293 cells and 300-19 pre-B cells. […] Intracellular calcium concentrations were calculated using the Hitachi 4500 Intracellular Cation Measurement program.

[6] = system: CCR1; assay: Calcium flux in 293 cells transfected with CCR1; type: cell-based; details: 293 cells transfected with CCR1, FIG. 2c
Text: as §5, §6, §7

[7] = system: CCR2; assay: Calcium flux in 293 cells transfected with CCR2; type: cell-based
Description: as §6
(§8) Calcium fluorimetry on transfected 293 and 300-19 cells. Native mouse BLR1 was subcloned into pBK-CMV (Stratagene) and used to transfect HEK 293 cells and 300-19 pre-B cells. G418-resistant clones were tested for BLR1 expression using an affinity purified rabbit anti-mouse antiserum that is specific for the BLR1 amino terminus. HEK293 cells expressing CCR1, CCR2 and CXCR2 were from the Cardiovascular Research Institute, UCSF. Ca2+-mobilization studies were performed as described (26) using a Hitachi 4500 spectrometer. Intracellular calcium concentrations were calculated using the Hitachi 4500 Intracellular Cation Measurement program.

[8] = system: CXCR2; assay: Calcium flux in 293 cells transfected with CXCR2; type: cell-based; details: 293 cells transfected with CXCR2, FIG. 2d
Text: as §5, §6, §7

[9] = system: BLR1; assay: Calcium flux in BLR1 transfected 300-19 pre-B cells; type: cell-based, mouse; details: FIG. 2e
Text: as §5, §6, §7

[10] = system: Control transfectants; assay: Calcium flux in control transfectants of 293 and 300-19 cells; type: cell-based; details: control transfectants of either cell line (293, 300-19)
Description: as §6, §8

[11] = system: BLR1; assay: Chemotaxis of BLR1 transfected Jurkat T cells; type: cell-based, mouse; details: Jurkat T cells transfected with BLR1
Text: as §5, §6, §4

[12] = system: BLR1- negative cells; assay: Chemotaxis of BLR1-negative Jurkat cells; type: cell-based
Description: as §6
as §3, with “In some experiments, cells were preincubated with 100 ng/ml pertussis toxin (List Biol. Labs, Campbell, Calif.) for 2 hrs at 37° C. IL-8 (R&D Systems, Minneapolis, Minn.) and synthetic human SDF1 a (N33A) synthesized by native chemical ligation (Gryphon Sciences, South San Francisco) were used as positive controls. SDF1a (N33A) has identical activity to native human and mouse SDF1a (24, 25).” left out

Molecule | BLC-induced migration of pertussis toxin pretreated B cells ([1]; preincubated with 100 ng/ml pertussis toxin for 2 hrs at 37° C., FIG. 1g) | potency as a B cell attractant ([1]; baculovirus expressed protein, compared with most chemokines) | migration of cells in the absence of a gradient ([1]; cells incubated with BLC in the absence of a gradient, FIG. 1f) | chemotactic response in B cells ([1]; mouse spleen lymphocytes, FIG. 1a) | chemotactic activity towards CD4 and CD8 T cells [2] | chemotactic activity for spleen monocytes/macrophages [3] | chemotactic activity towards granulocytes [4] | calcium flux [5] | calcium flux [6] | calcium flux [7] | calcium flux [8] | calcium flux dose response [9] | calcium flux response [10] | chemotactic response [11] | chemotactic response [12]
pertussis toxin [reference compound] | failed to migrate |  |  |  |  |  |  |  |  |  |  |  |  |  | 
B1 |  | potency less than that of most chemokines | failed to migrate | strong chemotactic response | limited activity | weak but reproducible chemotactic activity | no chemotactic activity | dose dependent calcium flux | failed to stimulate a calcium flux | failed to stimulate a calcium flux | failed to stimulate a calcium flux | saturable | did not respond | showed a chemotactic response | failed to respond

Reference: US6110695A, “Modulating the interaction of the chemokine, B Lymphocyte Hemoattractant, and its Receptor, BLR1” (The Regents of the University of California, priority 1997, dated 2000)
